T1: full-length MBP-PUB11 (Arabidopsis thaliana, UniProt Q8GUG9 1-612)
T1 construct: U-box E3 ubiquitin ligase PUB11, Arabidopsis thaliana, full-length CDS in pMAL-C2x; not shown: MBP, N-terminal, kept
T1 sequence (looked up): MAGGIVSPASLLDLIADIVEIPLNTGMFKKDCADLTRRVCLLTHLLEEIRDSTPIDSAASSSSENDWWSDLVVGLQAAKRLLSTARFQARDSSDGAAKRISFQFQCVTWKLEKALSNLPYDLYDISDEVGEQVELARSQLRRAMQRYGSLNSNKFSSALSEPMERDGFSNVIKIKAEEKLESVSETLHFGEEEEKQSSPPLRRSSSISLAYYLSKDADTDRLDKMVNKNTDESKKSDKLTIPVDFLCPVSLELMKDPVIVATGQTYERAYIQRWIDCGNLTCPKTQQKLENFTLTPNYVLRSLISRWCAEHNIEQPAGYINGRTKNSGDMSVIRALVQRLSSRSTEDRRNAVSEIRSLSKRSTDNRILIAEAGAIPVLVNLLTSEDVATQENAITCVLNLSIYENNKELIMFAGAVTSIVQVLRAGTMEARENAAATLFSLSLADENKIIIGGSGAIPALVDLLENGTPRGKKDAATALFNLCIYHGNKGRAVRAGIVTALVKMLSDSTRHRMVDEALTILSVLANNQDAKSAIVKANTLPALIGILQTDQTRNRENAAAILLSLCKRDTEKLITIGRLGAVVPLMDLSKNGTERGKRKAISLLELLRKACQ

B1: His-AtHPPD (Arabidopsis thaliana 4-hydroxyphenylpyruvate dioxygenase) (enzyme, UniProt P93836 1-445, looked up)
chain: MGHQNAAVSENQNHDDGAASSPGFKLVGFSKFVRKNPKSDKFKVKRFHHIEFWCGDATNVARRFSWGLGMRFSAKSDLSTGNMVHASYLLTSGDLRFLFTAPYSPSLSAGEIKPTTTASIPSFDHGSCRSFFSSHGLGVRAVAIEVEDAESAFSISVANGAIPSSPPIVLNEAVTIAEVKLYGDVVLRYVSYKAEDTEKSEFLPGFERVEDASSFPLDYGIRRLDHAVGNVPELGPALTYVAGFTGFHQFAEFTADDVGTAESGLNSAVLASNDEMVLLPINEPVHGTKRKSQIQTYLEHNEGAGLQHLALMSEDIFRTLREMRKRSSIGGFDFMPSPPPTYYQNLKKRVGDVLSDDQIKECEELGILVDRDDQGTLLQIFTKPLGDRPTIFIEIIQRVGCMMKDEEGKAYQSGGCGGFGKGNFSELFKSIEEYEKTLEAKQLVG
notes: 4-hydroxyphenylpyruvate dioxygenase (AtHPPD), Arabidopsis thaliana, full-length CDS in pET-15b; For MST the His tag was labelled with RED-tris-NTA 2nd generation dye; A low level of self-hydroxylation of phenylalanines is reported also for the untreated protein; also called AtHPPD-WT; His-labeled AtHPPD; source: E. coli BL21(DE3), purified; not shown: His6, N-terminal, kept
B2: GST-PUB11-ARM (domain or fragment)
chain: QPAGYINGRTKNSGDMSVIRALVQRLSSRSTEDRRNAVSEIRSLSKRSTDNRILIAEAGAIPVLVNLLTSEDVATQENAITCVLNLSIYENNKELIMFAGAVTSIVQVLRAGTMEARENAAATLFSLSLADENKIIIGGSGAIPALVDLLENGTPRGKKDAATALFNLCIYHGNKGRAVRAGIVTALVKMLSDSTRHRMVDEALTILSVLANNQDAKSAIVKANTLPALIGILQTDQTRNRENAAAILLSLCKRDTEKLITIGRLGAVVPLMDLSKNGTERGKRKAISLLELLRKACQ
modifications: GST carrier omitted. Limits not printed: ARM region taken as everything after the U-box (240-314) to the C-terminus

Key:
full-length MBP-PUB11 = target: T1, full-length MBP-PUB11; experiment: pull-down; purified MBP-PUB11 full length or truncated variants (or MBP alone) with purified His-AtHPPD, 4°C; immunoblot with anti-His and anti-MBP; conditions: both partners purified
[1] = target: B1; experiment: MST; His-AtHPPD (or mutants) labelled with RED-tris-NTA 2nd generation, constant 400 nM; GST-PUB11-ARM serially diluted; 25°C; 20 mM HEPES pH 8.0, 100 mM NaCl; three repeats; conditions: both partners purified

binding result (full-length MBP-PUB11) | Kd [1] [µM] | Binder
binds |  | B1
 | 7.42 | B2
